From publication PMC9160049, “Cryo-EM structures of Gid12-bound GID E3 reveal steric blockade as a mechanism inhibiting substrate ubiquitylation” (Nature Communications, 2022) come the findings set out here.

Data set [1] concerns the target Chelator-GID^SR4 (Gid7-Gid4-Gid5-Gid1-Gid8-Gid2-Gid9), Twin-Strep at the C-terminus of Gid8 (S. cerevisiae) (UniProt P53076). As to the kind of experiment: cryo-EM structure; Cage-GID^SR4 prepared without Gid12, co-expressed in Hi5 cells and purified; 19.8 Å map fitted with three Chelator-GID^SR4 models.
The target of data set [2] is Gid12-Chelator-GID^SR4 (Gid12-Gid7-Gid4-Gid5-Gid1-Gid8-Gid2-Gid9), Twin-Strep at the C-terminus of Gid8 (S. cerevisiae) (UniProt Q12027). Kind of data set: cryo-EM structure; maps of Gid12-GID^SR4 (9.8 Å), Gid12-Chelator-GID^SR4 (19.4 Å) and Gid12-Cage-GID^SR4 (20.6 Å), complexes co-expressed in Hi5 cells and purified; docked with Gid12-SRS and prior structures.
Data set [3] concerns the target PHSVTP-Fbp1 (Fbp1 with its N-terminus exchanged to Mdh2 degron) (S. cerevisiae) (UniProt P09201). Kind of data set: cryo-EM structure; purified Cage-GID^SR4 at 1 mg/ml with fivefold molar excess of purified PHSVTP-Fbp1 added directly before grid preparation; 12.2 Å; 25 mM HEPES pH 7.5, 50 mM NaCl, 5 mM DTT.
For data set [4], the target named is T1, 3×HA-Gid4 (endogenously N-terminally HA-tagged Gid4) (S. cerevisiae (endogenous in BY4741), UniProt P38263 1-362).
T1 construct: Gid4 (Vid24), S. cerevisiae, tagged at the endogenous locus; source: endogenous locus, BY4741 GID12-9×cMYC::kanMX4, 3×HA-GID4 yeast, in lysate; not shown: 3×HA, N-terminal, kept
T1 sequence (looked up): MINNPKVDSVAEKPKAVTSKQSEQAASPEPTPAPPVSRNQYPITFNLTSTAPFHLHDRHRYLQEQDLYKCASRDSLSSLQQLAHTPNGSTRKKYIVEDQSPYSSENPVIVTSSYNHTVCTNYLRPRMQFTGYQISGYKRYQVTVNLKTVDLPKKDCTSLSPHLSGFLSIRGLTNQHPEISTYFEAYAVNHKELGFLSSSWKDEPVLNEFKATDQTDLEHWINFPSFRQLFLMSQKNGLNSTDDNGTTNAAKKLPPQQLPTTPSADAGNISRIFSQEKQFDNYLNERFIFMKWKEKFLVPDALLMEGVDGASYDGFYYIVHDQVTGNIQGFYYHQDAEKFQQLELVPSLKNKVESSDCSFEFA
Kind of data set: affinity purification with mass spectrometry; 3×HA-Gid4 on anti-HA resin, eluted with HA peptide, from BY4741 GID12-9×cMYC lysate; glycolytic conditions, ethanol starvation for 16 h or carbon recovery; iBAQ quantification. The following applies: partners not purified.

Data set [5] concerns the molecule itself. Kind of data set: cryo-EM structure; purified Chelator-GID^SR4 at 0.6 mg/ml with threefold molar excess of purified Mdh2-6×His added directly before grid preparation; 18.9 Å; 25 mM HEPES pH 7.5, 150 mM NaCl, 5 mM DTT.

The stoichiometry N is a count of units in the complex or per binding partner. For the molecule “Chelator-GID^SR4 (Gid7-Gid4-Gid5-Gid1-Gid8-Gid2-Gid9), Twin-Strep at the C-terminus of Gid8, P53076 1-958; Q12508 1-421; P38263 1-362; P40547 1-921; P25569 1-745; P40208 1-455; P40492 1-516”, in data set [1], the stoichiometry N was 3.
As for “Gid12-Chelator-GID^SR4 (Gid12-Gid7-Gid4-Gid5-Gid1-Gid8-Gid2-Gid9), Twin-Strep at the C-terminus of Gid8, Q12027 1-708; P53076 1-958; Q12508 1-421; P38263 1-362; P40547 1-921; P25569 1-745; P40208 1-455; P40492 1-516”, in data set [2], the stoichiometry N came to 3.
Take “PHSVTP-Fbp1 (Fbp1 with its N-terminus exchanged to Mdh2 degron) (from UniProt P09201 1-348) (enzyme)”: the stoichiometry N in data set [3] came out at 4.

B1: Gid12-9×cMYC (natural protein, S. cerevisiae (endogenous in BY4741), UniProt Q12027 1-708, looked up)
chain: MATGRIQFAVSTPCNTKGKPSGYRLFEFKNDRLALVPSERGCTKVDVNANIQAFCYLRPNGRDTSISPDATHILDSCDYMVLAKSNGFIEIISNYQYKIKNGLRLAPSYILRCTPEDFESNFFSDYMIAGLEYSQGLLYCCMCSGRIYVFVMNLPTDYIQYKNMYNPMFPDCFFKVHHDNNTTHSSEEEKLFEGSTRYTGRSCSKHICYFLLPIEPSHLRSSPVVSSFCNMYQGLPIYRPSMYLHIERGISTFHINPLDRFCFMTVSPRSPLFIRKIILPLTYVTFLSTFISLKNSIQGDTCGEILSWDNVAQQNGFGSLFSWISNKFTFDTDIINSTIWDDIVKYSGTGMLDSGIVWKQRQGHAKDDIYELFHTQDMLGSSRRNSSFSTASSEPRPLSRRRRESFQALTRDAFRERMDVPCSTKWELDSFIRGLRRNTFMVDFEIVEKISHRNGNDGVNEDDNTTDESDETMTSFLTDNYKKMDIVCIDHFVTLSAFRPRYYDEPIIKIDSLSNKNGSENGTNEEEWAESQMKVDGQVIDDETAQFKQALGNLCSFKKLFMLDDSLCFILDTHGVLLINRFEIKNTKNLLRNSKDTIRIIPHDFGLINDTIVIINDIDVGTDNVCALTFHLVVTSMAGEITVLKGEFFKNCRLGRIKLCDSLKLNRKDRFVDKLALIDYDGLNAQKRRLDYDEKDLYTFIVKKVKRD
notes: Gid12 (Ipf1, YDL176W), S. cerevisiae, tagged at the endogenous locus; The strain name is written GID12-9×cMYC; source: endogenous locus, BY4741 GID12-9×cMYC::kanMX4, 3×HA-GID4 yeast, in lysate
As for B1, in data set [4], the “ratio of Gid12 to Gid4 in the Gid4 immunoprecipitate (iBAQ), glycolytic growth conditions” value is ~0.2 Gid12:Gid4 and the “stoichiometry of Gid12 to Gid4 in the Gid4 immunoprecipitate (iBAQ), gluconeogenic growth conditions” value is ~1 Gid12:Gid4.

B2: Mdh2-6×His (enzyme, S. cerevisiae, UniProt P22133 2-377, looked up)
chain: PHSVTPSIEQDSLKIAILGAAGGIGQSLSLLLKAQLQYQLKESNRSVTHIHLALYDVNQEAINGVTADLSHIDTPISVSSHSPAGGIENCLHNASIVVIPAGVPRKPGMTRDDLFNVNAGIISQLGDSIAECCDLSKVFVLVISNPVNSLVPVMVSNILKNHPQSRNSGIERRIMGVTKLDIVRASTFLREINIESGLTPRVNSMPDVPVIGGHSGETIIPLFSQSNFLSRLNEDQLKYLIHRVQYGGDEVVKAKNGKGSATLSMAHAGYKCVVQFVSLLLGNIEQIHGTYYVPLKDANNFPIAPGADQLLPLVDGADYFAIPLTITTKGVSYVDYDIVNRMNDMERNQMLPICVSQLKKNIDKGLEFVASRSASS
notes: Mdh2 (malate dehydrogenase), S. cerevisiae; The name is written Mdh2-6×His; also called malate dehydrogenase; source: purified
B2: the “stoichiometry N” value in data set [5] came to 2.
